Laboratory results reported in the nanobody polyreactivity screen of Harvey et al. (2022).

Assay: yeast display, Sf9 membrane polyspecificity reagent, FACS + sequencing; frameworks hold sequencing errors
In short: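 Genes from sorted yeast were amplified by colony PCR, read by MiSeq 2 × 250 sequencing and filtered on CDR length. These cells carried a synthetic nanobody library in Saccharomyces cerevisiae BJ5465 and were sorted by FACS into low and high (top ~1%) gates on anti-HA and streptavidin fluorescence. Polyreactivity is labelled according to the gate of origin.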

## QVQLVESGGGLVQAGRSLRLTCAASGRTFWWYAMGWYRQAPGKEWEFVAAISQRGTSTYYADSVKGRFTISRDNAKNTVYLQMNSLKPEDTAVYDCAATVYPSWYVLFTARRMDYWGQGTQVTVSS
  polyreactivity (PSR sort gate): high polyreactivity

## RVQLVESGGGLVQAGGSLRLSCAASGRIFKYYAMGWYRPAPGTERELVASITIGSTTYADSVKGRFTISRDNAMNTVYLHMNSLKPEDTAVYYCNRVYRQRLGRDYWGQGTQVTVSS
  polyreactivity (PSR sort gate): high polyreactivity

## QVQLVESGGVLVQAGGSLRLSCAASGSTFLGYAMGWYRQAPGKERELVAAISSGGSTNYADSVKGRFTLSRDNAKNTVYLQMNSLKPDDTAVYYCGARTRRFRYYYWGQGPQVTVSS
  polyreactivity (PSR sort gate): high polyreactivity

## QVQLVESGGGLVQAGGSLRLSCAASGGIFSYAMGWYRQAPGKERELVAAISRSAGITYYADSVKGRFTISRDNAKNTVYLQMNSLKPEDTAVYYCAASYYSYLYYSWGQGTQVTVSS
  polyreactivity (PSR sort gate): high polyreactivity

## QVQLVESGGGLVQAGGSLRLSCAASGSIFGPYVKGWYSQAPGKEREFVAAIRGSGGSTYYADSVKGRFTISRDNAKKTVYLQMNSLKPEDTAVYYCNARLKYTLYYYWGQGTQVTVSS
  polyreactivity (PSR sort gate): high polyreactivity

## QVQLVESGGGLVQAGGGLRLSCAASGSTFVKNAMGWYRQAPGKERELVAAISYRGGRTYYADSVKGRFTISRDNAKNTVYLQMNSLKPEDTAVYYCAADASHLTGSEYWGQGTQVTVSS
  polyreactivity (PSR sort gate): high polyreactivity

## QVQLVESGGGLVQAGGSLRLSCAASGSIFWQTPMGWYRQAPGKERELVAAITRSGGSTYYADSVKGRFTISRDNAKITVYLQMNSLKPEDTLVYYCKKYGYKGGVGDDYWGQGTQVTVSS
  polyreactivity (PSR sort gate): high polyreactivity

## QVQLVESGGGLVQAGGSLRLSCAASGFTFYSYAMGWYRQAPGKERELVAAISKRGGDTSYADSVKGRFTISRDNAKNTVYLQMNSLKPEDTAVYYCAKVYVPYGSSGGFLSRYNYWGQGTQVTVSS
  polyreactivity (PSR sort gate): high polyreactivity

## QVQLVESGGGLVQAGGSLRLSCAASGSILGYYAMGWYRQAPGKERELVADIDNGTSTYYADSVKGRFTISRDNANNTVYLQMISLKPEDTAVYYCADEYYSRYFQSYYWGQGTQVTVSS
  polyreactivity (PSR sort gate): low polyreactivity

## QVQLVESGGGLVQAGGSLRLSCAASGFTFFPNAMGWYRQAPGKERELVADITDGGSTNYADSVKGRFTISRDNAKNTVYLQLNSLKPEDTADYYCNADWYGWFGGYEYWGQGTQVTVSS
  polyreactivity (PSR sort gate): high polyreactivity

## QVQLVESGGGLVQAGGSLRLSCAASGSILGRYAMGWYRQAPGKERELVAAITNRGGSTYYADSVNGRFTISRDNAKNTVYLQMNSLKPEDTAVYYCAAPYSAKELYYRMDYWGQGTQVTVSS
  polyreactivity (PSR sort gate): high polyreactivity

## QVQLVESGGGLVQAGGSLRLSCAASGTFVTYMGWYRQAPGKERELVAAIRNGGSTNYADSVKGRFTISRDNAKNTVYLQMNSLKPEDTAVYYCAADRAGSIMNYWGQGTQVTVSS
  polyreactivity (PSR sort gate): low polyreactivity

## QVQLVESGGGLVQAGGSLRLSCAASGFTFRVNAMGWYRQAPGKERELVAAISSGGRTYYADSVKGRFTISRDNAKNTVYLQMNSLKPEDTAVYYCNAGRVRHGNDYWGQGTQVTVSS
  polyreactivity (PSR sort gate): high polyreactivity

## QVQLVESGGGLVQAGGSLRLSCAASGFTFSDYAMGWYRQAPGKERELVAAISTRGSSTYYADSVKGRFTISRDNAKNTVYLQMNSLKPEDTAVYYCNAVGSYSGYYYWGQGTQVTVSS
  polyreactivity (PSR sort gate): high polyreactivity

## QVQLVESGGGLDQAGGSLRLSCAASGSTFQAYARGWYRQAPGKERELVAAISRRSGSTYYADSVKGRFTISRDNAKNTVYLQMNSLKPEDTAVYYCNAGSRRPYDYWGQGTQVTVSS
  polyreactivity (PSR sort gate): low polyreactivity

## QVQLVESGGGLVQAGGSLRLSCAASGITFDGYAMGWNTQAPGKEREFVAAITWNGGSTYYADSVKGRFTISRDNAKNTVYLQMNSLKPEDTAVYYCNADPFTGYDYWGQGTQVTVSS
  polyreactivity (PSR sort gate): low polyreactivity

## QVQLVESGGGLVQAGGSLRLSCAASGGTFRYYAMGWYRQAPGKERELVATINWSGGSTYADSVKGRFTISRDNAKNTVYLQMNSLKPEDTAVYYCNAGWWIPVYYWDEWYIYNYWGQGTQVTVSS
  polyreactivity (PSR sort gate): high polyreactivity

## QVQLVESGGGLVQAGGSLRLSCAASGRTFEGNAMGWYRQAPGKERELVAAISWSGGSTYYANSVKGRFTISRDNAKNTVYLQMNSLKPEDTAVYYCAAVPVHTGSLYWGFTTGYDYWGQGTQVTVSS
  polyreactivity (PSR sort gate): low polyreactivity

## QVQLVESGGGLVQAGGSLRLSCAASGRIFKLYAMGWYRQEPGKVRELVASITWGGGSTNYADSVKGRFTISRDNAKNTVYLQMNSLKQEDTAVYYCAAVYSKFAVFWEYDYWGQGTQVTVSS
  polyreactivity (PSR sort gate): low polyreactivity

## QVQLVESGGGLVQAGGSLRLSCASSGGTFSPYAMVWYIQAPGKEREMVAVIRSDVTTNYADSVKGRFTISRDNAKNTLYLQMNRLKPEDTAVYYCAVQYLGYGGLFPLDYWGQGTQVTVSS
  polyreactivity (PSR sort gate): low polyreactivity

## QVQLVESGGGLVQAGGSLRLSCAASGSILKYYAMGWYRQAPGKERELLAAISWSGGRTYYADSVKGRFTISRDNAKNTVYLQMNSLKPEDTAVYYCAAENYGSGSWHGPEYDYWGQGTQVTVSS
  polyreactivity (PSR sort gate): low polyreactivity

## QVQLVESGGGLVQAGGSLRLSCAASGRTFWTNAMGWYRQAPGKEREFVAAISWRGASTFYADSVKGRFTISRDNAKNTVYLQMNSLNPEDTAVYYCAAQSRTRSFYGKYDSWGQATQVTVSS
  polyreactivity (PSR sort gate): low polyreactivity

## QVQLVESGGGLVQAGGSLRLSCAASGSIFDVYVMGWYRQAPGKERELVAAITSTGSTNYADSVKGRFTISRDNAKNTVYLQMNSLKPEDTAVYYCATDGVYKHIQVLYDYWGQGTQVTVSS
  polyreactivity (PSR sort gate): low polyreactivity

## QVQLVDSGGGLVQAGGSLRLSCAASGSIFKFYTMGWYRQAPGKERQLVAAISSSDGSTHYADSVKGRFTISRDNAKNTVYLQMNSLKPEDTAVYYCARRRYSRYSVTRGNYWGQGTQVTVSS
  polyreactivity (PSR sort gate): high polyreactivity

## QVQLVESGGGLVQAGGSLRLSCAASGRIFVYYAMGWYRQAPGKERELVAAITYSVDSTYYADSVKGRFTISRDNAKNTVYLQMNSLKPEDTAVYDCATDVDWAYGYQYEYWGQGTQVTVSS
  polyreactivity (PSR sort gate): low polyreactivity

## QVQLVESGGGLVQAGGSLRLSCAASGNTFGRYAMGWYRQAPGKERELVASIRGSSVRTFYADSVKGRFTISRDNAKNTVYLQMNSLKPEDTAVYYCAKRGYAYPSSYDSWGQGTQVTVSS
  polyreactivity (PSR sort gate): high polyreactivity

## QVQLVESGGGLVQAGGSLRLSCAASGRIFDLYAMGWYRQAPGKERELVATISGSGGSTYYADSVKGRFTISRDNAKNTVYLQMNSLKPEDTAVFYCAAVSVSSWYDYWGLGTQVTVSS
  polyreactivity (PSR sort gate): low polyreactivity

## QVQLLESGGGLVQPGGSLRLSCAASGSIFGRNVMGWYRQAPGKERELVAAISSSGGRTYYADSVKGRFTISRDNAKNNVYLQMNCLKPEDTAVYYCADRYGIKYYYWGQGTQVTVSS
  polyreactivity (PSR sort gate): high polyreactivity

## QVQLVESGGGLVQAGGSLRLSCAASGITFRTNAMGWYRQAPGKERELVAVISSTGGRTYYADSVKGRFTISRDNAKNTVYLQMNSLNPEDTAVYYCAARAKYRFGYDYWGQGTQVTVSS
  polyreactivity (PSR sort gate): high polyreactivity

## QVQLVESGGGLVQAGGSLRLSCAASGSTFKRYAMGWYRQPPGKERELVASISSGGSTNYADSVKGRFTISRDNAKNSVYLQMNSLKPEDTAVYYCAAGYHVSTRGLIGHFDYWGQGTQVTVSS
  polyreactivity (PSR sort gate): high polyreactivity

## QVQLVESGGGLVQAGGSLRLSCAASGGTFRTYTMGWYRQAPGRVRELVAGISSRGGSTYYADSVKGRFTISRDNAKKTLYLQMNSLKPEDTAVYNCAVRHLNKRRDDYWGQGTQVTVSS
  polyreactivity (PSR sort gate): high polyreactivity

## QVQLVESGGGLVQAGGSLRLSCAASGSTFRYNAMGWYRQAPGKERELVATITGSGGSTYYADSVKGRFTISRDNAKNTVYLQMNSLKPEDTAVYYCTARYVYGAYSSLSAHYYWGQGTQVTVSS
  polyreactivity (PSR sort gate): high polyreactivity

## QVQLVDSGGGLVQAGGSLRLSCAASGRIFYQYAMGWYRQAPGKERELVAGISKRGGSTYYADSVKGRFTISRDNAKNTVYLQMNSLKPEDTAVYYCARGGYPGSAEYDYWGQATQVTVSS
  polyreactivity (PSR sort gate): high polyreactivity

## QVQLVESGGGIVQAGGSLRLSCAASGFTFWRYARGWYRQAPGKERELVAGISSGGSTNYADSVKGRFTISRDNAKNTVYLQMNSLKPEDTAVYYCAARGNYFYGIYGYWGQGTQVTVSS
  polyreactivity (PSR sort gate): low polyreactivity

## QVKLEESGGGLVQAGGSLRLTCAASGSTFKYNAMGWYRQAPGKERELVAAISSGGSTNYADSVKGRFTISRDNAMNTVYLQMISLKPEDTAVYYCNADYTYVTAWYYYWGQGTQVTVSS
  polyreactivity (PSR sort gate): high polyreactivity

## QVQLVESGGSLVQAGGSLRLSCDASGRTFGTNAMGWYRQAPRKETELVAAISWRGTSTYYADSVKGRFTNSRDNAKNTVYLQMNSLKPEDTAVYYCAARGYRADQWEYDYWGQGTQVTVSS
  polyreactivity (PSR sort gate): low polyreactivity

## QVQLVESGGGLVQAGGSLRLSCAASGRNFGSNTMGWYRQAPGKERELVAAITGDDSTYADSVKGRFTISRDNAKNTVYLQMNSLKPEDTAVYYCAVVWVWDVWFLVYYWGQGTQVTVSS
  polyreactivity (PSR sort gate): low polyreactivity

## QVQLVESGGGLVQAGGSLRLSCAASGRIFPKYAMVWYRQAPGKERELVAGITKRVGSTYYADSVKGRFTISRDNAKNTVYLQMNSLKPEDTAVYYCAADYRYLIDYLDPEKEGMDYWGQGTQVTVSS
  polyreactivity (PSR sort gate): low polyreactivity

## QVQLVESGGGLVQAGGSLRLSCAASGRIFSVYAMGWYRQAPGTERELVAVITTSGGSTYYADSVKGRFTISRGNAKNTVYLQMNSLKPEDTAVYYCNAEPWSYAIGSYEYWGQGTQVTVSS
  polyreactivity (PSR sort gate): high polyreactivity

## QVQLVESGGGLVQAGGSLRLSSAASGRIFKYYAMGWYRQAPGKERELVAAISWRGGRTYYADSVKGRFTISRDNAKNTVYLQMNSLKPEDTAVYYCAAEWYATMGYWGQGTQVTVSS
  polyreactivity (PSR sort gate): low polyreactivity

## QVQLVESGGGLVQAGGSLRLSCAASGYTIFSYGMGWYRQAPGKERELVAAISSGDRTNYADSVKGRFTISRDNAKNTVYLQMNSLKPEDTAVYYCNADRASSSVGYSDDFGHDSWGQGTQVTVSS
  polyreactivity (PSR sort gate): low polyreactivity

## QVHLEESGGGLVQEGGSHRLSCAASGGTFFSYDMGWYRQAPGKERELVAAISATGGSTYYADSVKGRFTISRDNAKNTVYLQMNSLKPEDTAVYYCNAYQESGTYLRMDYWGQGTQVTVSS
  polyreactivity (PSR sort gate): low polyreactivity

## QVQLVESGGGLVQAGGSLRLSCAASGLIFYKYAMGWYRQAPGKERELVAAITSGGSTNYADSVKGRFTISRDNAKNTVYLQMNSLKPEDTAVYYCNADYNLYLVVRWWYPPVDYWGQGTQVTVSS
  polyreactivity (PSR sort gate): low polyreactivity
